Experiment [1] has as its target talin-R4 (1654-1848) (UniProt P26039). In words: SPR.
For experiment [2], the target named is talin-R6-R8 (1984-2344) (UniProt P26039). In words: SPR. (In SPR one partner is held on a chip, and binding of the other changes the refractive index at the surface.)
Experiment [3] has as its target talin-RM (1654-2344) (UniProt P26039). In words: SPR.
In experiment [4] the target is talin-H (Mus musculus, UniProt P26039). In words: SPR, lipid immobilised on biotin chip, talin-H injected. In kind it is binding. The conditions noted are these: labelled compound; 10 mM Hepes, pH 7.4, 37 °C.
The target of experiment [5] is PIPKIγ peptide (Mus musculus) (UniProt O70161). The conditions noted are these: cited from earlier work.
PIPKIγ peptide (Mus musculus), sequence (O70161 whole entry): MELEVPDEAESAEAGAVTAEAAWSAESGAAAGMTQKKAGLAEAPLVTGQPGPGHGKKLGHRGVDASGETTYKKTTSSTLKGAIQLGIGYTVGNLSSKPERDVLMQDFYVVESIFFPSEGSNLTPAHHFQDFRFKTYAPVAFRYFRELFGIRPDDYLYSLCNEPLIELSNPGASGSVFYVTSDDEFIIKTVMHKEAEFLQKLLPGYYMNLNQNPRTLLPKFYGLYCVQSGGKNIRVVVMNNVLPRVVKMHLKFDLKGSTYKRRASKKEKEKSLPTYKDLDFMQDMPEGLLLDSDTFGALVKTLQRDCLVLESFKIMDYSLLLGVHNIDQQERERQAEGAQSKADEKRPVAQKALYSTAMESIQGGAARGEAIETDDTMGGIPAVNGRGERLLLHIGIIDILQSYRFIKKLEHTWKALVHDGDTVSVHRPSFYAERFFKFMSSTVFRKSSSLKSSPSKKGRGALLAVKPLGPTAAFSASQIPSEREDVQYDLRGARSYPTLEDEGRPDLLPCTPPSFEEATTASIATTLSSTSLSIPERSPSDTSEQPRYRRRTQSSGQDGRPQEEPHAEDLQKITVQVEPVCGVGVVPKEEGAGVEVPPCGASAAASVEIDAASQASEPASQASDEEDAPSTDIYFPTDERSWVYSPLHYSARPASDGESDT

talin-RM (1654-2344), sequence (P26039 1654-2344): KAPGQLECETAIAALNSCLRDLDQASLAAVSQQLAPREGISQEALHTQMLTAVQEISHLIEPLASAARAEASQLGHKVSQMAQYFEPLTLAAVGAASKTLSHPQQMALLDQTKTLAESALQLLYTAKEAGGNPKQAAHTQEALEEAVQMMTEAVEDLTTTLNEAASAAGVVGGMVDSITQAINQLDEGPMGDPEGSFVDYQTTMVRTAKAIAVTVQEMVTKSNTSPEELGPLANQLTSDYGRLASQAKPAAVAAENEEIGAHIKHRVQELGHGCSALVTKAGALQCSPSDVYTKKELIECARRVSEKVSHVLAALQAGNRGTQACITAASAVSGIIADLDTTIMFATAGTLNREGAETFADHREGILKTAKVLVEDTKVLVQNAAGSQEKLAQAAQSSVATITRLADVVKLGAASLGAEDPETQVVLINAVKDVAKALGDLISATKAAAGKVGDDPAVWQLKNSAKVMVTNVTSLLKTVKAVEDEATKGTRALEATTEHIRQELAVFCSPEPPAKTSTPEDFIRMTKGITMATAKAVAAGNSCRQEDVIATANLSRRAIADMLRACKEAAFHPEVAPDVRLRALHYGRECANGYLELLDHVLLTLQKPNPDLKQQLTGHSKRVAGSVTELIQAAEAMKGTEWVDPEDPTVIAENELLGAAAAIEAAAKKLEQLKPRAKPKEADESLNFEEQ
talin-PTB PTB, sequence (P26039 309-405): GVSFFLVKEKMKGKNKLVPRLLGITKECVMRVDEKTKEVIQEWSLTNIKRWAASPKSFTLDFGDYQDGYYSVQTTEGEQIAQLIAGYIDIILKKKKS
talin-R4 (1654-1848), sequence (P26039 1654-1848): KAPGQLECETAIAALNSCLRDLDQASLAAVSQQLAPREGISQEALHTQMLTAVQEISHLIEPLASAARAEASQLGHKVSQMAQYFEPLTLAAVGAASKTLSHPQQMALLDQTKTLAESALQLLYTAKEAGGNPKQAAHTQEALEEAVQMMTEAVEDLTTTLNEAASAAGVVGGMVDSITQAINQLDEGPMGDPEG
talin-R6-R8 (1984-2344), sequence (P26039 1984-2344): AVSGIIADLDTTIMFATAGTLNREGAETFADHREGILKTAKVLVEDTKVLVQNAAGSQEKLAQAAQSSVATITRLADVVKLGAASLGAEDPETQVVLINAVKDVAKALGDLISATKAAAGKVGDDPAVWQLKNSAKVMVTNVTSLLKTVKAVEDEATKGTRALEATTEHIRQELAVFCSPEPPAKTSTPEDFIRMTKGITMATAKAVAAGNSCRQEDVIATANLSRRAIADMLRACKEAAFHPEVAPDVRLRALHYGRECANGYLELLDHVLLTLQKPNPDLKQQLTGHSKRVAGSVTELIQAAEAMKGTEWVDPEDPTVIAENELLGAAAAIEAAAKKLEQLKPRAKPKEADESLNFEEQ
talin-H, sequence (P26039 1-433): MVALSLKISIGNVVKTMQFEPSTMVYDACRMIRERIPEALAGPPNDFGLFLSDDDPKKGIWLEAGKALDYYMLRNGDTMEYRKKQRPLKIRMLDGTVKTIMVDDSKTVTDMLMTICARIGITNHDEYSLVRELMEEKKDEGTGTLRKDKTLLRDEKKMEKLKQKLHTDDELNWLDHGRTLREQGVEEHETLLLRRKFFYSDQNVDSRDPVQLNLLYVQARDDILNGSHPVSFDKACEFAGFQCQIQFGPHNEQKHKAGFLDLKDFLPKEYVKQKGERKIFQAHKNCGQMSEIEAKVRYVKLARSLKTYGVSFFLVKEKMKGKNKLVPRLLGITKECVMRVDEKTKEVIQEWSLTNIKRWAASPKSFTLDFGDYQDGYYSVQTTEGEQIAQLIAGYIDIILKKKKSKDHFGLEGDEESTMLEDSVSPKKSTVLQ

What is called Kd is a measure of binding affinity in units of concentration. As to “WT talin-PTB (talin-F3/PTB, 306-405) (from UniProt P26039 306-405) (domain or fragment)”, the Kd in experiment [1] amounted to 3.6 µM; in experiment [2], 78 µM; in experiment [3] it was 0.577 µM.

In experiment [4], biotinylated C6-PIP2 returned a Kd of about 0.0892 µM.

“talin-PTB L325R (from UniProt P26039 306-405) (domain or fragment)” showed a Kd in experiment [3] of 0.667 µM.

For the substance “talin-PTB M319A (from UniProt P26039 306-405) (domain or fragment)”, the Kd in experiment [3] was determined as 80.9 µM.

talin-PTB PTB (from UniProt P26039): the Kd in experiment [5] is 0.27 µM.

Consider “talin-PTB Q381V (from UniProt P26039 306-405) (domain or fragment)”, for which, in experiment [3], the Kd was 314 µM.

“talin-PTB S365D (from UniProt P26039 306-405) (domain or fragment)” came in with a Kd in experiment [3] of 1660 µM.

Turning to “talin-PTB S379R (from UniProt P26039 306-405) (domain or fragment)”, the Kd in experiment [3] was 625 µM.

Take “talin-PTB W359A (from UniProt P26039 306-405) (domain or fragment)”: the dissociation constant Kd in experiment [3] was 0.529 µM.

The values above are taken from publication PMC2522368 (Molecular cell, 2008).
